Experimental data from the supplement of paper PMC5998384.

Legend:
HeLa Kyoto [1] = test: solubility in G1/S (NP-40 vs SDS abundance) (log2 ratio); higher = more soluble; details: cell cycle stage: G1/S
HeLa Kyoto [2] = test: solubility change mitosis vs G1/S (difference of NP-40 vs SDS log2 ratios) (log2 ratio difference); higher = more soluble in mitosis
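For solubility change mitosis vs G1/S (difference of NP-40 vs SDS log2 ratios) in this document: synchronized HeLa Kyoto cells (double thymidine block for G1/S, nocodazole release for mitosis), protein amounts in NP-40 versus SDS lysates quantified by mass spectrometry, three biological replicates.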
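For solubility in G1/S (NP-40 vs SDS abundance) in this document: HeLa Kyoto cells arrested at G1/S by double thymidine block, proteins quantified by TMT10plex mass spectrometry in mild NP-40 versus SDS extracts, three biological replicates.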

Chain of NEK6 (chain, as listed by the source): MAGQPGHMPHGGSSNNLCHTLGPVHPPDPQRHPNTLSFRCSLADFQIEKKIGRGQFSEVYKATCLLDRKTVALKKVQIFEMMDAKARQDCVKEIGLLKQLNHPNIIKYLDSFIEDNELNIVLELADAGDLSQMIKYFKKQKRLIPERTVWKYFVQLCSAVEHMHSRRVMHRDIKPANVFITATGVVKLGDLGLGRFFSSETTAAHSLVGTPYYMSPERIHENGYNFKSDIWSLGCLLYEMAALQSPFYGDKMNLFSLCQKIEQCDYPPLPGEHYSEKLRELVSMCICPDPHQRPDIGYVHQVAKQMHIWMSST

MRRSLAPSQLAKRKPEGRSCDDEDWQPGLVTPRKRKSSSETQIQECFLSPFRKPLSQLTNQPPCLDSSQHEAFIRSILSKPFKVPIPNYQGPLGSRALGLKRAGVRRALHDPLEKDALVLYEPPPLSAHDQLKLDKEKLPVHVVVDPILSKVLRPHQREGVKFLWECVTSRRIPGSHGCIMADEMGLGKTLQCITLMWTLLRQSPECKPEIDKAVVVSPSSLVKNWYNEVGKWLGGRIQPLAIDGGSKDEIDQKLEGFMNQRGARVSSPILIISYETFRLHVGVLQKGSVGLVICDEGHRLKNSENQTYQALDSLNTSRRVLISGTPIQNDLLEYFSLVHFVNSGILGTAHEFKKHFELPILKGRDAAASEADRQLGEERLRELTSIVNRCLIRRTSDILSKYLPVKIEQVVCCRLTPLQTELYKRFLRQAKPAEELLEGKMSVSSLSSITSLKKLCNHPALIYDKCVEEEDGFVGALDLFPPGYSSKALEPQLSGKMLVLDYILAVTRSRSSDKVVLVSNYTQTLDLFEKLCRARRYLYVRLDGTMSIKKRAKVVERFNSPSSPDFVFMLSSKAGGCGLNLIGANRLVMFDPDWNPANDEQAMARVWRDGQKKTCYIYRLLSAGTIEEKIFQRQSHKKALSSCVVDEEQDVERHFSLGELKELFILDEASLSDTHDRLHCRRCVNSRQIRPPPDGSDCTSDLAGWNHCTDKWGLRDEVLQAAWDAASTAITFVFHQRSHEEQRGLR [RAD54L]
solubility in G1/S (log2) (HeLa Kyoto [1]): -0.0919 | solubility change mitosis (log2) (HeLa Kyoto [2]): -0.192

PRR12
solubility in G1/S (log2) (HeLa Kyoto [1]): 0.163 | solubility change mitosis (log2) (HeLa Kyoto [2]): 0.0459

MAASRRSQHHHHHHQQQLQPAPGASAPPPPPPPPLSPGLAPGTTPASPTASGLAPFASPRHGLALPEGDGSRDPPDRPRSPDPVDGTSCCSTTSTICTVAAAPVVPAVSTSSAAGVAPNPAGSGSNNSPSSSSSPTSSSSSSPSSPGSSLAESPEAAGVSSTAPLGPGAAGPGTGVPAVSGALRELLEACRNGDVSRVKRLVDAANVNAKDMAGRKSSPLHFAAGFGRKDVVEHLLQMGANVHARDDGGLIPLHNACSFGHAEVVSLLLCQGADPNARDNWNYTPLHEAAIKGKIDVCIVLLQHGADPNIRNTDGKSALDLADPSAKAVLTGEYKKDELLEAARSGNEEKLMALLTPLNVNCHASDGRKSTPLHLAAGYNRVRIVQLLLQHGADVHAKDKGGLVPLHNACSYGHYEVTELLLKHGACVNAMDLWQFTPLHEAASKNRVEVCSLLLSHGADPTLVNCHGKSAVDMAPTPELRERLTYEFKGHSLLQAAREADLAKVKKTLALEIINFKQPQSHETALHCAVASLHPKRKQVTELLLRKGANVNEKNKDFMTPLHVAAERAHNDVMEVLHKHGAKMNALDTLGQTALHRAALAGHLQTCRLLLSYGSDPSIISLQGFTAAQMGNEAVQQILSESTPIRTSDVDYRLLEASKAGDLETVKQLCSSQNVNCRDLEGRHSTPLHFAAGYNRVSVVEYLLHHGADVHAKDKGGLVPLHNACSYGHYEVAELLVRHGASVNVADLWKFTPLHEAAAKGKYEICKLLLKHGADPTKKNRDGNTPLDLVKEGDTDIQDLLRGDAALLDAAKKGCLARVQKLCTPENINCRDTQGRNSTPLHLAAGYNNLEVAEYLLEHGADVNAQDKGGLIPLHNAASYGHVDIAALLIKYNTCVNATDKWAFTPLHEAAQKGRTQLCALLLAHGADPTMKNQEGQTPLDLATADDIRALLIDAMPPEALPTCFKPQATVVSASLISPASTPSCLSAASSIDNLTGPLAELAVGGASNAGDGAAGTERKEGEVAGLDMNISQFLKSLGLEHLRDIFETEQITLDVLADMGHEELKEIGINAYGHRHKLIKGVERLLGGQQGTNPYLTFHCVNQGTILLDLAPEDKEYQSVEEEMQSTIREHRDGGNAGGIFNRYNVIRIQKVVNKKLRERFCHRQKEVSEENHNHHNERMLFHGSPFINAIIHKGFDERHAYIGGMFGAGIYFAENSSKSNQYVYGIGGGTGCPTHKDRSCYICHRQMLFCRVTLGKSFLQFSTMKMAHAPPGHHSVIGRPSVNGLAYAEYVIYRGEQAYPEYLITYQIMKPEAPSQTATAAEQKT [TNKS]
solubility in G1/S (log2) (HeLa Kyoto [1]): 0.036 | solubility change mitosis (log2) (HeLa Kyoto [2]): -0.258

MGNLESAEGVPGEPPSVPLLLPPGKMPMPEPCELEERFALVLSSMNLPPDKARLLRQYDNEKKWDLICDQERFQVKNPPHTYIQKLQSFLDPSVTRKKFRRRVQESTKVLRELEISLRTNHIGWVREFLNDENKGLDVLVDYLSFAQCSVMFDFEGLESGDDGAFDKLRSWSRSIEDLQPPSALSAPFTNSLARSARQSVLRYSTLPGRRALKNSRLVSQKDDVHVCILCLRAIMNYQYGFNLVMSHPHAVNEIALSLNNKNPRTKALVLELLAAVCLVRGGHEIILAAFDNFKEVCKELHRFEKLMEYFRNEDSNIDFMVACMQFINIVVHSVEDMNFRVHLQYEFTKLGLEEFLQKSRHTESEKLQVQIQAYLDNVFDVGGLLEDAETKNVALEKVEELEEHVSHLTEKLLDLENENMMRVAELEKQLLQREKELESIKETYENTSHQVHTLRRLIKEKEEAFQRRCHLEPNVRGLESVDSEALARVGPAELSEGMPPSDLDLLAPAPPPEEVLPLPPPPAPPLPPPPPPLPDKCPPAPPLPGAAPSVVLTVGLSAIRIKKPIKTKFRLPVFNWTALKPNQISGTVFSELDDEKILEDLDLDKFEELFKTKAQGPALDLICSKNKTAQKAASKVTLLEANRAKNLAITLRKAGRSAEEICRAIHTFDLQTLPVDFVECLMRFLPTEAEVKLLRQYERERQPLEELAAEDRFMLLFSKVERLTQRMAGMAFLGNFQDNLQMLTPQLNAIIAASASVKSSQKLKQMLEIILALGNYMNSSKRGAVYGFKLQSLDLLLDTKSTDRKMTLLHFIALTVKEKYPDLANFWHELHFVEKAAAVSLENVLLDVKELGRGMELIRRECSIHDNSVLRNFLSTNEGKLDKLQRDAKTAEEAYNAVVRYFGESPKTTPPSVFFPVFVRFIRSYKEAEQENEARKKQEEVMREKQLAQEAKKLDAKTPSQRNKWQQQELIAELRRRQAKEHRPVYEGKDGTIEDIITVLKSVPFTARTAKRGSRFFCDAAHHDESNC [FMNL3]
solubility in G1/S (log2) (HeLa Kyoto [1]): -0.31 | solubility change mitosis (log2) (HeLa Kyoto [2]): 0.267

NEK6
solubility in G1/S (log2) (HeLa Kyoto [1]): 0.1 | solubility change mitosis (log2) (HeLa Kyoto [2]): -0.09

MSFLIDSSIMITSQILFFGFGWLFFMRQLFKDYEIRQYVVQVIFSVTFAFSCTMFELIIFEILGVLNSSSRYFHWKMNLCVILLILVFMVPFYIGYFIVSNIRLLHKQRLLFSCLLWLTFMYFFWKLGDPFPILSPKHGILSIEQLISRVGVIGVTLMALLSGFGAVNCPYTYMSYFLRNVTDTDILALERRLLQTMDMIISKKKRMAMARRTMFQKGEVHNKPSGFWGMIKSVTTSASGSENLTLIQQEVDALEELSRQLFLETADLYATKERIEYSKTFKGKYFNFLGYFFSIYCVWKIFMATINIVFDRVGKTDPVTRGIEITVNYLGIQFDVKFWSQHISFILVGIIIVTSIRGLLITLTKFFYAISSSKSSNVIVLLLAQIMGMYFVSSVLLIRMSMPLEYRTIITEVLGELQFNFYHRWFDVIFLVSALSSILFLYLAHKQAPEKQMAP [GPR89B]
solubility in G1/S (log2) (HeLa Kyoto [1]): -0.0559 | solubility change mitosis (log2) (HeLa Kyoto [2]): -0.167

MRDADADAGGGADGGDGRGGHSCRGGVDTAAAPAGGAPPAHAPGPGRDAASAARGSRMRPHIFTLSVPFPTPLEAEIAHGSLAPDAEPHQRVVGKDLTVSGRILVVRWKAEDCRLLRISVINFLDQLSLVVRTMQRFGPPVSR [LAGE3]
solubility in G1/S (log2) (HeLa Kyoto [1]): 0.0355 | solubility change mitosis (log2) (HeLa Kyoto [2]): 0.0284

BRCA1
solubility in G1/S (log2) (HeLa Kyoto [1]): -0.318 | solubility change mitosis (log2) (HeLa Kyoto [2]): 0.246

MRSRVLWGAARWLWPRRAVGPARRPLSSGSPPLEELFTRGGPLRTFLERQAGSEAHLKVRRPELLAVIKLLNEKERELRETEHLLHDENEDLRKLAENEITLCQKEITQLKHQIILLLVPSEETDENDLILEVTAGVGGQEAMLFTSEIFDMYQQYAAFKRWHFETLEYFPSELGGLRHASASIGGSEAYRHMKFEGGVHRVQRVPKTEKQGRVHTSTMTVAILPQPTEINLVINPKDLRIDTKRASGAGGQHVNTTDSAVRIVHLPTGVVSECQQERSQLKNKELAMTKLRAKLYSMHLEEEINKRQNARKIQIGSKGRSEKIRTYNFPQNRVTDHRINKTLHDLETFMQGDYLLDELVQSLKEYADYESLVEIISQKV [MTRF1L]
solubility in G1/S (log2) (HeLa Kyoto [1]): -0.0262 | solubility change mitosis (log2) (HeLa Kyoto [2]): 0.288

CEP350
solubility in G1/S (log2) (HeLa Kyoto [1]): 0.00287 | solubility change mitosis (log2) (HeLa Kyoto [2]): 0.0106
